T1: His6-tagged M. musculus p31(comet) (M. musculus, UniProt Q9DCX1 1-276)
T1 construct: p31(comet), M. musculus, full length; The same construct as m12 with the TEV-cleavable His6 tag left on for the Ni2+ pull-down; also called His6-tagged p31(comet); source: E. coli Rosetta 2 (DE3) pLysS, purified; not shown: His6, N-terminal, kept
T1 sequence (looked up): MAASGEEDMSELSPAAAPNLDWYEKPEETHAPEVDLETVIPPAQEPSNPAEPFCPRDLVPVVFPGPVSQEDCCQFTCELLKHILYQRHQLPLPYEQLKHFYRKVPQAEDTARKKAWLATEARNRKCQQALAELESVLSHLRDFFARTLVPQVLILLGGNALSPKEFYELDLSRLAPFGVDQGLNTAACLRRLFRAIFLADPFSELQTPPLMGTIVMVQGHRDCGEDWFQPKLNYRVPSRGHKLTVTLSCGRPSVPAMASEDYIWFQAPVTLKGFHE

T2: M. musculus p31(comet) (wild type, tag cleaved) (M. musculus, UniProt Q9DCX1 1-276)
T2 construct: p31(comet), M. musculus, full length; also called wild-type p31(comet); source: E. coli Rosetta 2 (DE3) pLysS, purified (Ni-NTA, Hitrap Q ion exchange, Superdex 200 SEC); not shown: His6, N-terminal, cleaved
T2 sequence (looked up): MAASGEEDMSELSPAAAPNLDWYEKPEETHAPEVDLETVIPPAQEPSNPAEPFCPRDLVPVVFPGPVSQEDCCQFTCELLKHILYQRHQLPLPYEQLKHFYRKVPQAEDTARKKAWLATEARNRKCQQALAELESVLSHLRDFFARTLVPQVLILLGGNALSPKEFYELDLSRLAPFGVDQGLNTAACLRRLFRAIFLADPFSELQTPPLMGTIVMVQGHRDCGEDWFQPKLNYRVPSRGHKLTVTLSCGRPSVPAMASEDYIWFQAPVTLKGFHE


Tests used:
[1] = target: C. elegans MAD-2 (MDF-2) (C. elegans); experiment: SEC-MALS; single purified proteins on Superdex 200 10/300 GL; PCH-2 and TRIP13 with and without added nucleotides
[2] = target: the molecule itself; experiment: as above
[3] = substrate: Nc1ncnc2c1ncn2[C@@H]1O[C@H](COP(=O)(O)OP(=O)(O)OP(=O)(O)O)[C@@H](O)[C@H]1O; experiment: enzyme-coupled ATPase assay (pyruvate kinase / lactate dehydrogenase, NADH); type: biochemical, Caenorhabditis elegans; settings: basal, pH 8.5, 27 °C, 10 mM MgCl2, 200 mM NaCl, kcat per hexamer
[4] = target: the molecule itself; experiment: SEC; PCH-2 pore loop mutants compared with wild type on a size-exclusion column
[5] = substrate: Nc1ncnc2c1ncn2[C@@H]1O[C@H](COP(=O)(O)OP(=O)(O)OP(=O)(O)O)[C@@H](O)[C@H]1O; experiment: enzyme-coupled ATPase assay (pyruvate kinase / lactate dehydrogenase, NADH); type: biochemical, Caenorhabditis elegans; settings: basal, pH 8.5, 27 °C, 10 mM MgCl2, 200 mM NaCl, kcat per hexamer; remark: listed apart in the source
Excerpt: enzyme-coupled ATPase assay (pyruvate kinase / lactate dehydrogenase, NADH) on PCH-2 | the kcat of PCH-2^W221A around threefold higher than that of the wild-type enzyme

[6] = target: T1, His6-tagged M. musculus p31(comet); experiment: pull-down; Ni2+ pull-down: 300 pmol His6-tagged p31(comet) with 450 pmol untagged MAD2 in 50 μl (20 mM Tris-HCl pH 7.5 or 8.5, 200 mM NaCl, 20 mM imidazole, 0.1% NP-40), 20°C, Ni-NTA magnetic beads, Coomassie; settings: both partners purified
[7] = target: T2, M. musculus p31(comet) (wild type, tag …); experiment: SEC; as a8 but mixtures of two of the three proteins (one left out); settings: both partners purified
[8] = substrate: Nc1ncnc2c1ncn2[C@@H]1O[C@H](COP(=O)(O)OP(=O)(O)OP(=O)(O)O)[C@@H](O)[C@H]1O; experiment: enzyme-coupled ATPase assay (pyruvate kinase / lactate dehydrogenase, NADH); type: biochemical, Mus musculus; settings: basal, pH 8.5, 27 °C, 10 mM MgCl2, 200 mM NaCl, kcat per hexamer

Molecule | stoichiometry N [2] | Km [3] | kcat [3] | stoichiometry N [4] | also measured
C. elegans MAD-2 (MDF-2) (natural protein) |  |  |  |  | stoichiometry N [1]: 2
Caenorhabditis elegans PCH-2 (enzyme, C. elegans, UniProt Q09535 1-424, looked up, PCH-2 (TRIP13 ortholog), C. elegans, full length, 424 residues; Selenomethionine-derivatised protein was used for phasing only; two subunits of the hexamer carry ADP in the crystal; also called C. elegans TRIP13 ortholog; wild-type PCH-2; source: E. coli Rosetta 2 (DE3) pLysS, purified (Ni-NTA, Hitrap Q ion exchange, Superdex 200 SEC); not shown: His6, N-terminal, cleaved) MHEPMKTLKNIHAEIRICQKFPKSTVQKRFSEFEELIKAASKNARNWKPISSVELFQGDSSLNELFEKLVIGTCELRDGELFENVNDLTINPSNIHVYKLHKDGPLSQNIGDDDGDESIIGSQLWQLPCVEFDSIWENLIYDSNLKNEVMSYVAALARLSEKHVNTKIINVNRLILLTGPPGTGKTSLCKGLAQHLSIRMNDKYSKSVMLEINSHSLFSKWFSESGKLVQKMFDQIDELAEDEKCMVFVLIDEVESLGMCRESSSSRSEPSDAIRAVNALLTQIDRIRRRDNVLILCTSNLESTLDKALVDRADIVKNVGQPSDFARYSMLKSSIMELARIGVVIDNEVHTDYWPQDICDTKAPRNEFTEILFKIAQEARGLSGRAISMLPTLVYSKSPEETITLPNCMNLFLEAVKERLSRNN | 6 | 9.5 ± 1.3 µM | 56.0 +/- 1.5 ATP min^-1 |  | 
C. elegans PCH-2 'pore loop AG' mutant (enzyme, UniProt Q09535 1-424, looked up, also called PCH-2^AG; source: E. coli Rosetta 2 (DE3) pLysS, purified (Ni-NTA, Hitrap Q ion exchange, Superdex 200 SEC); not shown: His6, N-terminal, cleaved) MHEPMKTLKNIHAEIRICQKFPKSTVQKRFSEFEELIKAASKNARNWKPISSVELFQGDSSLNELFEKLVIGTCELRDGELFENVNDLTINPSNIHVYKLHKDGPLSQNIGDDDGDESIIGSQLWQLPCVEFDSIWENLIYDSNLKNEVMSYVAALARLSEKHVNTKIINVNRLILLTGPPGTGKTSLCKGLAQHLSIRMNDKYSKSVMLEINSHSLAGAAGAAAGALVQKMFDQIDELAEDEKCMVFVLIDEVESLGMCRESSSSRSEPSDAIRAVNALLTQIDRIRRRDNVLILCTSNLESTLDKALVDRADIVKNVGQPSDFARYSMLKSSIMELARIGVVIDNEVHTDYWPQDICDTKAPRNEFTEILFKIAQEARGLSGRAISMLPTLVYSKSPEETITLPNCMNLFLEAVKERLSRNN |  | 20.2 ± 1.6 µM | 85.4 +/- 1.2 ATP min^-1 | 6 | 
C. elegans PCH-2^F222A (enzyme, UniProt Q09535 1-424, looked up, PCH-2, C. elegans, full length, pore loop mutation F222A; also called pore loop mutant F222A; source: E. coli Rosetta 2 (DE3) pLysS, purified (Ni-NTA, Hitrap Q ion exchange, Superdex 200 SEC); not shown: His6, N-terminal, cleaved) MHEPMKTLKNIHAEIRICQKFPKSTVQKRFSEFEELIKAASKNARNWKPISSVELFQGDSSLNELFEKLVIGTCELRDGELFENVNDLTINPSNIHVYKLHKDGPLSQNIGDDDGDESIIGSQLWQLPCVEFDSIWENLIYDSNLKNEVMSYVAALARLSEKHVNTKIINVNRLILLTGPPGTGKTSLCKGLAQHLSIRMNDKYSKSVMLEINSHSLFSKWASESGKLVQKMFDQIDELAEDEKCMVFVLIDEVESLGMCRESSSSRSEPSDAIRAVNALLTQIDRIRRRDNVLILCTSNLESTLDKALVDRADIVKNVGQPSDFARYSMLKSSIMELARIGVVIDNEVHTDYWPQDICDTKAPRNEFTEILFKIAQEARGLSGRAISMLPTLVYSKSPEETITLPNCMNLFLEAVKERLSRNN |  | 19.3 ± 0.8 µM | 11.7 +/- 0.1 ATP min^-1 | 6 | 
C. elegans PCH-2^W221A (enzyme, UniProt Q09535 1-424, looked up, PCH-2, C. elegans, full length, pore loop mutation W221A; also called pore loop mutant W221A; source: E. coli Rosetta 2 (DE3) pLysS, purified (Ni-NTA, Hitrap Q ion exchange, Superdex 200 SEC); not shown: His6, N-terminal, cleaved) MHEPMKTLKNIHAEIRICQKFPKSTVQKRFSEFEELIKAASKNARNWKPISSVELFQGDSSLNELFEKLVIGTCELRDGELFENVNDLTINPSNIHVYKLHKDGPLSQNIGDDDGDESIIGSQLWQLPCVEFDSIWENLIYDSNLKNEVMSYVAALARLSEKHVNTKIINVNRLILLTGPPGTGKTSLCKGLAQHLSIRMNDKYSKSVMLEINSHSLFSKAFSESGKLVQKMFDQIDELAEDEKCMVFVLIDEVESLGMCRESSSSRSEPSDAIRAVNALLTQIDRIRRRDNVLILCTSNLESTLDKALVDRADIVKNVGQPSDFARYSMLKSSIMELARIGVVIDNEVHTDYWPQDICDTKAPRNEFTEILFKIAQEARGLSGRAISMLPTLVYSKSPEETITLPNCMNLFLEAVKERLSRNN |  |  |  | 6 | Km [5]: 28.3 ± 1.9 µM; kcat [5]: 168.7 +/- 2.3 ATP min^-1
M. musculus MAD2 (wild type) (natural protein, UniProt Q9Z1B5 1-205, looked up, MAD2, M. musculus, full length; Predominantly dimeric by SEC-MALS; also called WT MAD2; wild-type MAD2 dimer; source: E. coli Rosetta 2 (DE3) pLysS, purified (Ni-NTA, Hitrap Q ion exchange, Superdex 200 SEC); not shown: His6, N-terminal, cleaved) MAQQLAREQGITLRGSAEIVAEFFSFGINSILYQRGIYPSETFTRVQKYGLTLLTTTDPELIKYLNNVVEQLKEWLYKCSVQKLVVVISNIESGEVLERWQFDIECDKTAKEEGVRREKSQKAIQDEIRSVIRQITATVTFLPLLEVSCSFDLLIYTDKDLVVPEKWEESGPQFITNCEEVRLRSFTTTIHKVNSMVAYKTPVND | 2 |  |  |  | binding result [6]: binds
M. musculus C-MAD2^R133A (closed conformer of the monomeric MAD2 R133A variant) (natural protein, UniProt Q9Z1B5 1-205, looked up, MAD2, M. musculus, full length, dimerization-defective mutation R133A; the closed conformer, purified apart from the open one by anion exchange; also called closed MAD2; source: E. coli Rosetta 2 (DE3) pLysS, purified; closed conformer peak separated by anion exchange; not shown: His6, N-terminal, cleaved) MAQQLAREQGITLRGSAEIVAEFFSFGINSILYQRGIYPSETFTRVQKYGLTLLTTTDPELIKYLNNVVEQLKEWLYKCSVQKLVVVISNIESGEVLERWQFDIECDKTAKEEGVRREKSQKAIQDEIRSVIAQITATVTFLPLLEVSCSFDLLIYTDKDLVVPEKWEESGPQFITNCEEVRLRSFTTTIHKVNSMVAYKTPVND |  |  |  |  | binding result [7]: binds
Mus musculus TRIP13 (enzyme, M. musculus, UniProt Q3UA06 1-432, looked up, TRIP13, M. musculus, full length; Mixture of oligomeric states from monomer to hexamer by SEC-MALS; also called wild-type TRIP13; source: E. coli Rosetta 2 (DE3) pLysS, purified (Ni-NTA, Hitrap Q ion exchange, Superdex 200 SEC); not shown: His6, N-terminal, cleaved) MDEAVGDLKQALPCVAESPAVHVEVLQRSGSTAKKEDIKSSVYRLLNRHNIVFGDYVWTEFDDPFLSRNVQSVSIVDTELKAKDPQPIDLSACTIALHIFQLNEEGPSSENLDEETENIIAASHWVLPAAEFHGLWDSLVYDVEVKSHLLDYVMTTVLFSDKNVDSNLITWNRVVLLHGPPGTGKTSLCKALAQKLTIRLSSRYRYGQLIEINSHSLFSKWFSESGKLVTKMFQKIQDLIDDKEALVFVLIDEVESLTAARNACRAGAEPSDAIRVVNAVLTQIDQIKRHSNVVILTTSNITEKIDVAFVDRADIKQYIGPPSAAAIFKIYLSCLEELMKCQIIYPRQQLLTLRELEMIGFIENNVSKLSLLLSEISRKSEGLSGRVLRKLPFLAHALYIQAPSVTIEGFLQALSLAVDKQFEEKKKLSAYV | ≤ 6 |  |  |  | Km [8]: 13.9 ± 0.6 µM; kcat [8]: 8.7 +/- 0.1 ATP min^-1
M. musculus TRIP13^E253Q (enzyme, UniProt Q3UA06 1-432, looked up, TRIP13, M. musculus, full length, Walker B mutation E253Q; also called Walker B mutant; ATP hydrolysis-defective TRIP13; source: E. coli Rosetta 2 (DE3) pLysS, purified (Ni-NTA, Hitrap Q ion exchange, Superdex 200 SEC); not shown: His6, N-terminal, cleaved) MDEAVGDLKQALPCVAESPAVHVEVLQRSGSTAKKEDIKSSVYRLLNRHNIVFGDYVWTEFDDPFLSRNVQSVSIVDTELKAKDPQPIDLSACTIALHIFQLNEEGPSSENLDEETENIIAASHWVLPAAEFHGLWDSLVYDVEVKSHLLDYVMTTVLFSDKNVDSNLITWNRVVLLHGPPGTGKTSLCKALAQKLTIRLSSRYRYGQLIEINSHSLFSKWFSESGKLVTKMFQKIQDLIDDKEALVFVLIDQVESLTAARNACRAGAEPSDAIRVVNAVLTQIDQIKRHSNVVILTTSNITEKIDVAFVDRADIKQYIGPPSAAAIFKIYLSCLEELMKCQIIYPRQQLLTLRELEMIGFIENNVSKLSLLLSEISRKSEGLSGRVLRKLPFLAHALYIQAPSVTIEGFLQALSLAVDKQFEEKKKLSAYV | 6 |  |  |  | 
TRIP13 (Mus musculus; W221A) (protein, full-length, N-terminal His6 tag removed with TEV protease, E. coli Rosetta 2 (DE3) pLysS) MDEAVGDLKQALPCVAESPAVHVEVLQRSGSTAKKEDIKSSVYRLLNRHNIVFGDYVWTEFDDPFLSRNVQSVSIVDTELKAKDPQPIDLSACTIALHIFQLNEEGPSSENLDEETENIIAASHWVLPAAEFHGLWDSLVYDVEVKSHLLDYVMTTVLFSDKNVDSNLITWNRVVLLHGPPGTGKTSLCKALAQKLTIRLSSRYRYGQLIEINSHSLFSKAFSESGKLVTKMFQKIQDLIDDKEALVFVLIDEVESLTAARNACRAGAEPSDAIRVVNAVLTQIDQIKRHSNVVILTTSNITEKIDVAFVDRADIKQYIGPPSAAAIFKIYLSCLEELMKCQIIYPRQQLLTLRELEMIGFIENNVSKLSLLLSEISRKSEGLSGRVLRKLPFLAHALYIQAPSVTIEGFLQALSLAVDKQFEEKKKLSAYV |  |  |  |  | Km [8]: 24.4 ± 1.3 µM; kcat [8]: 18.7 +/- 0.2 ATP min^-1

Source: paper PMC4439613, “TRIP13 is a protein-remodeling AAA+ ATPase that catalyzes MAD2 conformation switching” (eLife, 2015)
